As usually defined, the EC50 (read off the curve) is the concentration giving half of the maximal effect. As usually defined, the Kd is the concentration at which binding is half-saturated. Low readings indicate a tighter complex, high ones a looser complex. As usually defined, the koff is the rate constant with which the complex falls apart. As usually defined, the EC50 is the midpoint of the concentration-response curve. Lower therefore signals a more potent agent. The kon is the second-order rate constant of association. Low readings indicate slower complex formation, high ones faster complex formation.

The results in this text go back to US20240368301A1 (HANGZHOU JIUYUAN GENE ENGINEERING, published 2024).

Where two headings read alike, the source gives them in different places.

The target in experiment [1] is T1, SIRPα-V8 on stably transfected cells (Homo sapiens (Human), UniProt P78324 31-504).
T1 construct: also called CHOZN-SIRPα-V8; 293T-SIRPα-V8
Description: competition FACS: 293T-SIRPα-V8 cells, antibody titrated against CD47-FITC, % of blocking (panel SIRPα-V8-CD47). As for the experimental part: (§1) After washing, cells were analyzed by utilizing FlowJo V10 and GraphPad Prism6 software.

For experiment [2], the target named is T2, SIRPα-V8-his (Sino Biological, Cat #30015-H08H).
T2 construct: The His tag belongs to the same chain; not shown: exact C-terminal limit of the vendor's construct
Description: ELISA: coated SIRPα-V8-his, antibody titrated, goat anti-hIgG Fc HRP (panel SIRPα-V8). The method, then:
(§2) 100 μL of 1 μg/mL of SIRPα-V1-his, SIRPα-V2-his and SIRPα-V8-his (Sino Biological, Cat #30015-H08H) were coated overnight at 4° C. in Maxisorp ELISA 96-well plates. […] After washing, 100 μL of 1:5000 dilution of goat Anti-hIgG Fc HRP (Invitrogen, Cat #A18823) was added to each well and incubated for 1 h. TMB substrate was used for color development and enzyme marker readings.

Experiment [3] addresses T3, SIRPα V1-his (ACRO, Cat #SIA-H5225) (human, UniProt P78324 31-370).
T3 construct: not shown: His tag
Description: competition ELISA: coated SIRPα-V1-his, antibody titrated against biotin-CD47, streptavidin-HRP (panel SIRPα-V1-CD47). The method, then: 100 μL of 1 μg/mL of recombinant SIRPα-V1-his and SIRPα-V2-his were coated overnight at 4° C. in Maxisorp ELISA 96-well plates. […] After washing, each well was added with 0.2 μg Streptavidin-HRP, substrate TMB, and read by an enzyme marker.

Experiment [4] concerns the target T4, SIRPγ on cells (Jurkat cells) (UniProt Q9P1W8 29-387).
T4 construct: whole, on cells
Description: FACS titration on SIRPγ-carrying cells, goat anti-hIgG-AF488 (panel SIRPγ).

Experiment [5] deals with T3, SIRPα V1-his (ACRO, Cat #SIA-H5225). Description: BLI (ForteBio Octet RED 96): SIRPα V1-his on Ni-NTA biosensor, antibody in a 1:2 series of 7 concentrations (row SIRPα-V1). The method, then:
5 μg/mL SIRPα V1-his and SIRPα V2-his was loaded to a Ni-NTA biosensor for 600 s, respectively. […] The binding time was 200 s and the dissociation time was 600 s. The data were fitted to calculate the affinity.
For orientation: BLI is a label-free optical method that tracks binding on a fibre tip over time.

For experiment [6], the target named is T5, SIRPα-V1 on 293T-SIRPα-V1 cells (human, UniProt P78324 31-504).
T5 construct: Stably transfected cell line
Description: FACS titration on 293T-SIRPα-V1 cells, goat anti-hIgG-AF488 (panel SIRPα-V1). As for the experimental part: (§3) After washing, cells were stained by 0.2 μg of goat anti-hIgG-AF488 at 4° C. for 30 min, resuspended in […] of DPBS/1% FBS, and analyzed by FlowJo V10 and GraphPad Prism6 software.

Experiment [7] addresses T6, cynomolgus macaques SIRPα-his (ACRO, Cat #SIA-C52H7) (cynomolgus macaque, UniProt A0A2K5VYQ9 31-369).
T6 construct: also called Monkey SIRPα; cynomolgus macaque SIRPα
T6 sequence: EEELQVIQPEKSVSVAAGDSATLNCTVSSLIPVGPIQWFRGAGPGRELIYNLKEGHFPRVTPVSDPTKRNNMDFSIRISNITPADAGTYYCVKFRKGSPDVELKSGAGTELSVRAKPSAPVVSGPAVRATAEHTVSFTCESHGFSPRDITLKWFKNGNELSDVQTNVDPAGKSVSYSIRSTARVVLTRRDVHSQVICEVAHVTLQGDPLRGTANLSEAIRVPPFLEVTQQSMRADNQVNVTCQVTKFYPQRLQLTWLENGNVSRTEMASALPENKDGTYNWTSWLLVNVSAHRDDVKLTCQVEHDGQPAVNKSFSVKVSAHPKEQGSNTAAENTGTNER
Description: ELISA: coated cynomolgus macaques SIRPα-his, antibody titrated, goat anti-hIgG Fc HRP (left panel). As for the experimental part: 100 μL of 1 μg/mL of cynomolgus macaques SIRPα-his were coated overnight at 4° C. in Maxisorp ELISA 96-well plates. […] After washing, each well was incubated with 100 μL of 1:5000-fold diluted goat anti-hIgG Fc HRP for 1 h at 37° C. and then substrate TMB, and read by an enzyme marker.

In experiment [8] the target is T1, SIRPα-V8 on stably transfected cells. Description: FACS titration on 293T-SIRPα-V8 cells, goat anti-hIgG-AF488 (panel SIRPα-V8). As for the experimental part:
as §3

Experiment [9] deals with T5, SIRPα-V1 on 293T-SIRPα-V1 cells. Description: competition FACS: 293T-SIRPα-V1 cells, antibody titrated against CD47-FITC, % of blocking (panel SIRPα-V1-CD47). As for the experimental part:
as §1

Experiment [10] concerns the target T7, SIRPα-V2 on CHOZN-SIRPα-V2 cells (Homo sapiens (Human), UniProt P78324 31-504). Description: competition FACS: CHOZN-SIRPα-V2 cells, antibody titrated against CD47-FITC, % of blocking (panel SIRPα-V2-CD47). The method, then:
as §1

In experiment [11] the target is T3, SIRPα V1-his (ACRO, Cat #SIA-H5225). Description: ELISA: coated SIRPα-V1-his, antibody titrated, goat anti-hIgG Fc HRP (panel SIRPα-V1). As for the experimental part:
as §2
(In general: In an ELISA, binding on a coated surface is turned into a signal by an enzyme label.)

Experiment [12] concerns the target T1, SIRPα-V8 on stably transfected cells. Description: FACS titration on CHOZN-SIRPα-V8 cells, goat anti-hIgG-AF488 (panel SIRPα-V8). The method, then: (§4) 2×10⁵ per well of stable transfer construct cell lines 293T-SIRPα-V1 (SEQ ID NO: 2), CHOZN-SIRPα-V2 (SEQ ID NO: 38), and CHOZN-SIRPα-V8 (SEQ ID NO: 39) in logarithmic phase were dispended in 96-well U-shaped culture plates, […] After washing, the cells were incubated with 0.2 μg of goat anti-hIgG-AF488 for 30 min at 4° C., then resuspended in 50 μL of DPBS/1% FBS and analyzed by flow cytometry with FlowJo V10 and GraphPad Prism6 software.

Experiment [13] deals with T5, SIRPα-V1 on 293T-SIRPα-V1 cells. Description: FACS titration on 293T-SIRPα-V1 cells, goat anti-hIgG-AF488 (panel SIRPα-V1). The method, then: as §4
This is another data set of the same source.

Experiment [14] concerns the target T1, SIRPα-V8 on stably transfected cells. Description: FACS on cells carrying the target. As for the experimental part:
(§5) After washing, cells were stained with 0.2 μg goat anti-hIgG Fc-AF488 (Jackson ImmunoResearch, Cat #109-546-170) at 4° C. for 30 min. After washing again, cells were resuspended in 50 μL of DPBS/1% FBS and analyzed by FlowJo V10 and GraphPad Prism6 software.

The target of experiment [15] is T5, SIRPα-V1 on 293T-SIRPα-V1 cells. Description: FACS on cells carrying the target. As for the experimental part:
as §5

The target of experiment [16] is T7, SIRPα-V2 on CHOZN-SIRPα-V2 cells. Description: FACS on cells carrying the target. The method, then: as §5
Experiment [17] addresses T3, SIRPα V1-his (ACRO, Cat #SIA-H5225). Description: competition ELISA: coated SIRPα-V1-his, antibody titrated against biotin-CD47, streptavidin-HRP (panel SIRPα-V1-CD47). The source holds these as a separate data set.
Experiment [18] shares this target. Description: BLI (Octet RED 96), His-tagged antigen on Ni-NTA sensor, antibody in solution. As for the experimental part: (§6) SIRPα V1-his (ACRO, Cat #SIA-H5225), SIRPα V2-his (made by transient transfection of HEK293F cells according to SEQ ID NO:38 sequence), SIRPβ-his (Novoprotein, Cat #CS93), SIRPγ-his (Sino Biological, Cat #11828-H08H) or cynomolgus macaques SIRPα-his (ACRO, Cat #SIA-C52H7) at 5 μg/mL was loaded to a Ni-NTA biosensor for 600 s. […] The data were fitted to calculate the affinity.

For experiment [19], the target named is T8, SIRPβ-his (Novoprotein, Cat #CS93) (UniProt O00241 30-371, limits assumed). Described as above. The method, then:
as §6

Experiment [20] addresses T9, SIRPα V2-his (made by transient transfection of HEK293F cells according to SEQ ID NO:38) (Homo sapiens (Human), UniProt P78324 31-373).
T9 construct: it is the full-length precursor, starting with MEPAG... and including the transmembrane and cytoplasmic parts; not shown: His tag
The experiment is described as above. The method, then:
as §6

Experiment [21] addresses SIRPγ-his (Sino Biological, Cat #11828-H08H) (UniProt Q9P1W8 29-360). The description is as above. As for the experimental part:
as §6

For experiment [22], the target named is T9, SIRPα V2-his (made by transient …). Description: competition ELISA: coated SIRPα-V2-his, antibody titrated against biotin-CD47, streptavidin-HRP (panel SIRPα-V2-CD47).
The target of experiment [23] is T3, SIRPα V1-his (ACRO, Cat #SIA-H5225). Description: ELISA.
For experiment [24], the target named is T8, SIRPβ-his (Novoprotein, Cat #CS93). Description: ELISA.

B1: H7L4-G1 (antibody, human IgG1, kappa)
heavy: not shown
light: DIVLTQSPASLAVSPGQRATITCRASESVDSYGNSFMHWYQQKPGQPPKPLIYLASNLESGVPARFSGSGSGTDFTLTINPVEANDAANYYCQQNNEYPWTFGGGTKVEIKRTVAAPSVFIFPPSDEQLKSGTASVVCLLNNFYPREAKVQWKVDNALQSGNSQESVTEQDSKDSTYSLSSTLTLSKADYEKHKVYACEVTHQGLSSPVTKSFNRGEC
notes: Humanized antibody with wild type human IgG1 and kappa; also called H7L4-G1w
Turning to B1, the “IC50 (read off the curve)” value is approximately 10 nM in experiment [1], approximately 3 nM in experiment [3], approximately 0.2 nM in experiment [9] and approximately 0.1 nM in [10]. Moreover, the “EC50 (read off the curve)” value was approximately 0.02 nM in [2]; approximately 0.5 nM in experiment [6]; approximately 0.04 nM in experiment [7]; approximately 0.8 nM in experiment [8]; approximately 0.03 nM in experiment [11]. For the same molecule, in experiment [4], the binding result is given as “binds”. In [5], this molecule displayed a Kd of less than 0.001 nM. The same molecule showed an off-rate constant (koff) in [5] of less than 1e-07 s⁻¹.

B2: H7L4-G1lala (antibody, human IgG1, kappa, L234A L235A)
heavy: not shown
light: B1 light
notes: also called humanized antibody H7L4
With B2, the “IC50 (read off the curve)” value was approximately 7 nM in experiment [1], approximately 3 nM in experiment [3], approximately 0.1 nM in experiment [9] and approximately 0.2 nM in [10]. Also, the “EC50 (read off the curve)” value in [2] is approximately 0.02 nM; in experiment [12] it was approximately 0.6 nM; in experiment [6], approximately 0.4 nM; in experiment [7] it was approximately 0.04 nM; in experiment [8], approximately 0.6 nM; in experiment [11] it was approximately 0.03 nM. Further, the “EC50 (read off the curve)” value in [13] is approximately 3 nM. For the same molecule, the binding result in experiment [4] was “binds”. In addition, in experiment [5], the Kd is less than 0.001 nM. In experiment [5], this molecule displayed a koff of less than 1e-07 s⁻¹.

B3: 18D5 (antibody, V domains shown)
VH: QVQLQQPGAELVRPGSSVKLSCKASGYTFTSYWVHWVKQRPIQGLEWIGNIDPSDSDTHYNQKFKDKASLTVDKSSSTAYMQLSSLTFEDSAVYYCVRGGTGTMAWFAYWGQGTLVTVSA
VL: DVVMTQTPLSLPVSLGDQASISCRSSQSLVHSYGNTYLYWYLQKPGQSPKLLIYRVSNRFSGVPDRFSGSGSGTDFTLKISRVEAEDLGVYFCFQGTHVPYTFGSGTKLEIK
In the case of B3, the EC50 in experiment [14] turned out to be 8.76 nM; in experiment [15] it was 1.08 nM; in experiment [16], 3.65 nM; in [23] it was 0.13 nM; in experiment [24] it was 0.196 nM. Also, the “IC50 (read off the curve)” value in [17] was approximately 20 nM; in experiment [22] it was approximately 30 nM. The Kd in experiment [18] was 0.115 nM; in experiment [19], 0.0137 nM; in experiment [20], 1.07 nM; in experiment [21] it was 1.23 nM. Besides, the koff in experiment [18] is 7.76e-05 s⁻¹; in [19], 2.36e-05 s⁻¹; in experiment [20], 0.000601 s⁻¹; in experiment [21], 0.000896 s⁻¹. Further, the kon in [18] was 674000 M⁻¹ s⁻¹; in [19] it was 1.72e+06 M⁻¹ s⁻¹; in experiment [20], 561000 M⁻¹ s⁻¹; in experiment [21], 728000 M⁻¹ s⁻¹.
